Results on 167 variants are retold here after the Human Domainome abundance scans (Beltran et al. 2025).

± gives the uncertainty stated by the source.

First the molecules themselves.
B1: Chromodomain-helicase-DNA-binding protein 4, residues 365 to 417; numbered along this chain, Q14839 (parent)
chain: YETDHQDYCEVCQQGGEIILCDTCPRAYHMVCLDPDMEKAPEGKWSCPHCEKE

Variants of B1 are the subject of this data set. Kind of data set: abundance fitness (aPCA) (normalised: wild type 0, dead -1); higher = more abundant; growth selection in yeast, the domain comes from the species named. The settings on record: Homo sapiens.
For G16L, the abundance fitness was -0.016 ± 0.1.
Then G16E, with 0.12 ± 0.12; and G16N, with 0.144 ± 0.22; and D22Q, with 0.083 ± 0.21.
Take D22I: the abundance fitness stood at 0.03 ± 0.2.
The result for D22T reads 0.089 ± 0.12.
The result for D22Y reads -0.42 ± 0.23; that for D22L, -0.34 ± 0.13.
Then D22N, with -0.101 ± 0.14; and D22S, with -0.272 ± 0.12.
With D22A, the abundance fitness turned out to be 0.056 ± 0.098.
Then D22G, with -0.021 ± 0.09.
Regarding D22H, the abundance fitness was -0.528 ± 0.28.
For the variant D22V, the abundance fitness was -0.065 ± 0.11.
Then D22P, with -0.721 ± 0.26; and D22W, with -0.219 ± 0.14; and D22F, with -0.129 ± 0.19.
P25M: the abundance fitness is -0.194 ± 0.15.
With P25Y, the abundance fitness is -0.135 ± 0.25.
As for P25C, the abundance fitness stood at 0.034 ± 0.15.
For P25S, the abundance fitness was found to be 0.068 ± 0.11.
The result for P25I reads -0.057 ± 0.27; that for P25L, -0.044 ± 0.12; that for P25N, 0.185 ± 0.19.
Then P25G, with -0.044 ± 0.096; and P25R, with -0.054 ± 0.094; and P25W, with -0.27 ± 0.13.
Consider P25T, for which the abundance fitness is -0.192 ± 0.22.
The result for P25A reads -0.243 ± 0.11; that for P25H, -0.485 ± 0.46.
Then P25D, with -0.276 ± 0.18; and P25K, with -0.274 ± 0.22.
The result for P25E reads 0.198 ± 0.12.
As to P25V, the abundance fitness is -0.241 ± 0.11.
Then P25Q, with -0.058 ± 0.15.
The result for P25F reads 0.079 ± 0.14; that for Q13S, 0.008 ± 0.11; that for Q13L, -0.091 ± 0.11.
Then Q13Y, with -0.117 ± 0.18; and Q13E, with -0.036 ± 0.13.
Consider Q13D, for which the abundance fitness is 0.12 ± 0.33.
The result for Q13V reads -0.018 ± 0.1; that for Q13P, -0.702 ± 0.17.
Then Q13N, with 0.255 ± 0.16; and Q13G, with 0.037 ± 0.09.
The result for Q13M reads 0.156 ± 0.15.
Consider Q13F, for which the abundance fitness was -0.063 ± 0.23.
Then Q13T, with -0.015 ± 0.14; and Q13K, with -0.474 ± 0.18.
The result for Q13H reads -0.135 ± 0.18; that for Q13I, -0.208 ± 0.24; that for Q13W, -0.255 ± 0.12.
The result for M30L reads -0.149 ± 0.075; that for M30T, 0.077 ± 0.16.
For M30A, the abundance fitness was -0.064 ± 0.1.
Then M30R, with -0.266 ± 0.099; and M30H, with -0.433 ± 0.2; and M30K, with 0.115 ± 0.18.
Then M30V, with -0.137 ± 0.099; and M30I, with -0.02 ± 0.19.
The result for M30F reads -0.19 ± 0.14.
Regarding M30Q, the abundance fitness is -0.287 ± 0.17.
Take M30S: the abundance fitness is -0.228 ± 0.1.
Turning to M30W, the abundance fitness is -0.119 ± 0.12.
Then M30E, with 0.075 ± 0.12.
The result for M30D reads -0.272 ± 0.12; that for M30G, -0.126 ± 0.086; that for Y28S, -0.271 ± 0.098.
The result for Y28W reads 0.086 ± 0.12; that for Y28H, 0.023 ± 0.22; that for Y28I, -0.295 ± 0.14.
On to Y28K, for which the abundance fitness is -0.267 ± 0.16.
The result for Y28V reads -0.05 ± 0.096.
Then Y28R, with -0.254 ± 0.094.
The result for Y28F reads 0.012 ± 0.16; that for Y28M, 0.048 ± 0.12.
Turning to Y28P, the abundance fitness was -0.704 ± 0.14.
The result for Y28D reads -0.526 ± 0.19; that for Y28E, -0.649 ± 0.12; that for Y28L, -0.073 ± 0.098.
Then Y28T, with -0.284 ± 0.14.
Then Y28N, with -0.403 ± 0.18; and Y28Q, with -0.395 ± 0.14; and Y28C, with -0.582 ± 0.16.
L20A: the abundance fitness was found to be 0.08 ± 0.1.
Turning to L20P, the abundance fitness stood at 0.149 ± 0.12.
Then L20I, with 0.023 ± 0.15; and L20V, with -0.028 ± 0.1; and L20R, with 0.113 ± 0.089.
The result for L20C reads -0.045 ± 0.12; that for L20Q, -0.022 ± 0.18; that for L20E, 0.01 ± 0.12.
The result for L20Y reads -0.179 ± 0.2; that for L20M, -0.011 ± 0.14; that for L20N, -0.083 ± 0.14.
As to L20F, the abundance fitness is -0.096 ± 0.17.
The result for L20S reads -0.013 ± 0.096; that for L20W, -0.146 ± 0.12.
Then L20D, with 0.178 ± 0.12; and L20T, with 0.036 ± 0.13; and L20H, with 0.143 ± 0.17.
Take E17D: the abundance fitness is -0.109 ± 0.12.
The result for E17F reads -0.222 ± 0.11; that for E17Y, -0.055 ± 0.13.
Then E17G, with -0.171 ± 0.1; and E17W, with -0.412 ± 0.12.
As for E17C, the abundance fitness is -0.308 ± 0.14.
Regarding E17I, the abundance fitness was -0.199 ± 0.14.
In the case of E17M, the abundance fitness is -0.149 ± 0.15.
Then E17S, with -0.033 ± 0.09; and E17N, with 0.115 ± 0.13.
The result for E17A reads -0.149 ± 0.12; that for E17R, -0.115 ± 0.086; that for E17L, -0.322 ± 0.085.
Then E17H, with -0.11 ± 0.16; and E17Q, with -0.135 ± 0.17; and E17K, with -0.153 ± 0.15.
Regarding E17T, the abundance fitness was -0.033 ± 0.11.
The result for E17V reads -0.076 ± 0.11.
Then C32M, with -0.687 ± 0.15.
Then C32L, with -0.776 ± 0.12.
Take C32F: the abundance fitness is -1.02 ± 0.25.
The result for C32E reads -0.504 ± 0.17.
Turning to C32H, the abundance fitness is -0.072 ± 0.21.
The result for C32K reads -0.817 ± 0.22; that for C32I, -0.916 ± 0.24.
Turning to C32N, the abundance fitness was -1.04 ± 0.39.
The result for C32G reads -0.967 ± 0.13.
The result for C32D reads -0.486 ± 0.21; that for C32A, -0.737 ± 0.14; that for V31M, -0.417 ± 0.16.
Then V31A, with 0.121 ± 0.11.
Regarding V31G, the abundance fitness is -0.017 ± 0.091.
The result for V31N reads 0.113 ± 0.21; that for V31S, 0.044 ± 0.11; that for V31Q, -0.1 ± 0.14.
In the case of V31R, the abundance fitness was -0.032 ± 0.1.
Then V31F, with -0.031 ± 0.16; and V31T, with -0.431 ± 0.17.
The result for V31L reads 0.258 ± 0.098; that for V31P, 0 ± 0.14; that for V31C, 0.138 ± 0.18.
Then V31W, with -0.236 ± 0.14.
Turning to V31D, the abundance fitness is -0.005 ± 0.14.
The result for V31I reads -0.234 ± 0.15; that for V31K, 0.027 ± 0.17.
Then V31Y, with 0.112 ± 0.16; and V31H, with 0.104 ± 0.18.
The result for V31E reads -0.089 ± 0.13; that for H29W, -0.999 ± 0.12.
For H29T, the abundance fitness is -0.79 ± 0.15.
The result for H29N reads -0.491 ± 0.26; that for H29D, -0.306 ± 0.19.
Then H29V, with -1.15 ± 0.11.
The result for H29S reads -0.477 ± 0.11.
Take H29E: the abundance fitness was -0.951 ± 0.15.
Then H29C, with 0.028 ± 0.16.
As to H29K, the abundance fitness is -0.943 ± 0.19.
The result for H29F reads -1.05 ± 0.29.
Take H29M: the abundance fitness is -0.686 ± 0.16.
Then H29Q, with -0.746 ± 0.14; and H29P, with -1.1 ± 0.21; and H29Y, with -0.841 ± 0.16.
The result for H29A reads -0.967 ± 0.13; that for H29I, -1.17 ± 0.24.
Then H29L, with -1.04 ± 0.14.
Turning to H29G, the abundance fitness is -0.698 ± 0.093.
